Assay results from patent US20170306005A1 (NASCIENT, published 2017).
Substitutions are numbered along the chain they refer to.

T1: mouse tenascin-C rCd4-His-FBG (rat; mouse, UniProt P05540 207-392, limits assumed)
T1 construct: domain: domains 3 and 4; C-terminal FBG fusion; biotinylated in the ELISA screen; also called Mu TNC; mouse TNC rCd4-His-FBG; not shown: 6His tag
T1 sequence (chain (part 1 of 2)): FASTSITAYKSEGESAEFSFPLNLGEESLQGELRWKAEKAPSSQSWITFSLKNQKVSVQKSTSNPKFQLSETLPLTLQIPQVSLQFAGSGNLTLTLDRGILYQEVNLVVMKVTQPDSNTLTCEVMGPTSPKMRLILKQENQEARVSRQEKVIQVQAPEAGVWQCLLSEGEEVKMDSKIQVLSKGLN
T1 sequence (chain (part 2 of 2)): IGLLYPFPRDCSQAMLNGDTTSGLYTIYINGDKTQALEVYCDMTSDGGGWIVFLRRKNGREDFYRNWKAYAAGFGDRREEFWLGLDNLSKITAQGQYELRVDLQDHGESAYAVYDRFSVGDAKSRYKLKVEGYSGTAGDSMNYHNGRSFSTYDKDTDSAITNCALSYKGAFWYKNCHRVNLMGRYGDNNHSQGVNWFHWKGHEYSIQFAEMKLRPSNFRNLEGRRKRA

T2: human tenascin-C rCd4-His-FBG (rat; human, UniProt P05540 207-392, limits assumed)
T2 construct: domain: domains 3 and 4; C-terminal FBG fusion; biotinylated in the ELISA and HTRF screens; also called Hu TNC; human TNC rCd4-His-FBG; not shown: 6His tag
T2 sequence (chain (part 1 of 2)): T1 sequence (chain (part 1 of 2))
T2 sequence (chain (part 2 of 2)): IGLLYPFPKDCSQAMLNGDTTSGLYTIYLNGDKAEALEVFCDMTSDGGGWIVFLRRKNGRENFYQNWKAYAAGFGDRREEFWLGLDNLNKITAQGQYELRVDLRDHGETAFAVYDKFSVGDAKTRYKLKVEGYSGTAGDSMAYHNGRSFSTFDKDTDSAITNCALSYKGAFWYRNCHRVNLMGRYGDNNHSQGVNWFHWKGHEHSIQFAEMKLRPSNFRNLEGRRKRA

B1: 162_02_F3 scFv (scFv, V domains shown, not shown: small tags and cut ends)
VH: EVRLVQSGAEVKKPGASVKVSCKVSGYTLTELSMHWVRQAPGKGLEWMGGFDPEDGETIYAQKFQGRVTMTEDTSTDTAYMELSSLRSEDTAVYYCATAQKETYALTYWGQGTLVTVSS
VL: DIQMTQSPASLPTSVGDRVTITCRASQYIQGFLNWYQQKPGKAPRLLIYAASTLQDGVPSRFSGSGYGTDFTLTISSLQPEDFATYYCQNQYRGPWTFGQGTKVEIK
notes: E. coli supernatant scFv
B2: 162_02_D3 scFv (scFv, V domains shown, not shown: small tags and cut ends)
VH: B1 VH with K101I, E102H, T103P, Y104L, A105G
VL: B1 VL with N90Q, Q91S, R93S, G94T
notes: E. coli supernatant scFv
B3: 162_02_C2 scFv (scFv, V domains shown, not shown: small tags and cut ends)
VH: B1 VH
VL: B1 VL with Q89M, N90H, Q91H, G94A
notes: E. coli supernatant scFv
B4: 160_01_A4 scFv (scFv, V domains shown, not shown: small tags and cut ends)
VH: B1 VH with Y104L, A105G, L106N, T107A, Y108I
VL: B1 VL with N90Q, Q91S, R93S, G94T
notes: E. coli supernatant scFv
B5: 162_02_C1 scFv (scFv, V domains shown, not shown: small tags and cut ends)
VH: B1 VH
VL: B1 VL with Q89L, N90H, Q91H, G94A
notes: E. coli supernatant scFv
B6: 162_02_C6 scFv (scFv, V domains shown, not shown: small tags and cut ends)
VH: B1 VH
VL: B1 VL with R93A
notes: E. coli supernatant scFv
B7: 160_01_G2 scFv (scFv, V domains shown, not shown: small tags and cut ends)
VH: B1 VH with A99Y, Q100T, K101L, E102D, T103N, Y104M
VL: B1 VL with N90Q, Q91S, R93S, G94T
notes: E. coli supernatant scFv
B8: 163_02_D11 scFv (scFv, V domains shown)
VH: B1 VH
VL: B1 VL with Q89L, N90H, Q91H, R93K, G94S
notes: E. coli supernatant scFv; not shown: scFv linker, domain order and the pSANG10 tags (FLAG/His)
B9: 163_02_A12 scFv (scFv, V domains shown)
VH: B1 VH
VL: B1 VL with Q89L, N90H, Q91H, G94E
notes: as for B8
B10: 161_01_F6 scFv (scFv, V domains shown, not shown: small tags and cut ends)
VH: B1 VH with T103N, Y104I, L106N, T107R, Y108H
VL: B1 VL with N90Q, Q91S, R93S, G94T
notes: E. coli supernatant scFv; also called 160_01_F6
B11: 161_01_H10 scFv (scFv, V domains shown, not shown: small tags and cut ends)
VH: B1 VH with K101P, E102V, T103W, Y104A, A105P, L106G
VL: B1 VL with N90Q, Q91S, R93S, G94T
notes: E. coli supernatant scFv
B12: 160_01_H4 scFv (scFv, V domains shown, not shown: small tags and cut ends)
VH: B1 VH with A99G, Q100R, K101F, E102V, T103W, Y104E
VL: B1 VL with N90Q, Q91S, R93S, G94T
notes: E. coli supernatant scFv
B13: 161_01_C11 scFv (scFv, V domains shown, not shown: small tags and cut ends)
VH: B1 VH with T103W, Y104L, A105P, L106D, T107V, Y108T
VL: B1 VL with N90Q, Q91S, R93S, G94T
notes: E. coli supernatant scFv
B14: 160_01_F1 scFv (scFv, V domains shown, not shown: small tags and cut ends)
VH: B1 VH with K101S, E102P, T103W, Y104S, A105G, L106M
VL: B1 VL with N90Q, Q91S, R93S, G94T
notes: E. coli supernatant scFv
B15: 161_01_C09 scFv (scFv, V domains shown, not shown: small tags and cut ends)
VH: B1 VH with K101L, E102P, T103Y, Y104L, L106Q
VL: B1 VL with N90Q, Q91S, R93S, G94T
notes: E. coli supernatant scFv
B16: 161_01_A12 scFv (scFv, V domains shown, not shown: small tags and cut ends)
VH: B1 VH with K101P, E102T, T103A, Y104L, L106N
VL: B1 VL with N90Q, Q91S, R93S, G94T
notes: E. coli supernatant scFv
B17: 162_02_F4 scFv (scFv, V domains shown, not shown: small tags and cut ends)
VH: B1 VH
VL: B1 VL with Q89M, N90H, Q91H, G94S
notes: E. coli supernatant scFv
B18: 162_02_H5 scFv (scFv, V domains shown, not shown: small tags and cut ends)
VH: B1 VH
VL: B1 VL with R93T
notes: E. coli supernatant scFv
B19: 165_13_D1 scFv (scFv, V domains shown, not shown: small tags and cut ends)
VH: QVQLVESGGGLVQPGRSLRLSCAASGFTFDDYAMHWVRQAPGKGLEWVSGISGSGGSTYYADSVKGRFTISRDNAKNSLYLQMNSLRAEDTALYYCAKGTRGEGDTFDIWGQGTMVTVSS
VL: DIQMTQSPASLPTPVGDRVTITCRASQYIQGFLNWYQQKPGKAPKLLIYDASNLETGVPSRFSGSGSGTDFTLTISSLQPEDFATYYCQQSYSTPQTFGQGTKVDIK
notes: E. coli supernatant scFv
B20: 165_13_B6 scFv (scFv, V domains shown, not shown: small tags and cut ends)
VH: B19 VH with T100Q, R101K
VL: B19 VL
notes: E. coli supernatant scFv
B21: 165_13_B1 scFv (scFv, V domains shown, not shown: small tags and cut ends)
VH: B19 VH with G99V, T100M, R101S, G102S, E103M, G104E, T106A
VL: B19 VL
notes: E. coli supernatant scFv

What was measured:
[1] = molecular target: T1, mouse tenascin-C rCd4-His-FBG; test: anti-FLAG capture ELISA, scFv supernatant
[2] = molecular target: T2, human tenascin-C rCd4-His-FBG; test: HTRF competition; competitor d2-labelled B12 IgG
Method: All samples and reagents were prepared in assay buffer (50 mM NaPO₄, 0.1% BSA, 0.4 M KF, pH 7.0) at 4× the stated concentration. 5 μl of each reagent was subsequently added to low volume 384-well assay plates (Greiner, 784075) to give a final reaction volume of 20 μl. IgG antibodies were labelled using the d2 labelling kit (CisBio, 62D2DPEA) as directed by the manufacturer. Streptavidin europium cryptate (CisBio, 610SAKLA, Lot#25C) was used at a final concentration of 1.8 ng active moiety (SA) per 20 μl reaction as recommended by the manufacturer. Biotinylated rCd4-His-FBG was prepared using EZ-link Sulfo-NHS-LC-Biotin reagent (Thermo Scientific, 21327) the extent of biotinylation was quantified using biotinylation fluorescence quantitation kit (Thermo Scientific, 46610). Where appropriate, supernatants containing scFv (prepared as described above for ELISA assays) were added to the 384-well assay plate at a final dilution of 1/20 (i.e. 1/5 dilution in assay buffer followed by addition of 5 μl diluted sample to the 20 μl FRET assay). […] Samples were incubated for approximately 1 h at room temperature and the FRET signal was determined using a BMG Pherastar instrument: excitation=320 nm; emission=620 nm and 665 nm; integration start time=60 μs; integration time=500 μs; 100 flashes per well. For competition assays containing culture supernatant, biotinylated rCd4-His-FBG antigen was pre-incubated with streptavidin europium cryptate for 45 min prior to addition of reagents to the assay plate. All FRET signals are presented as ΔR, where R=(E665/E620×104) and ΔR=(Rsample−Rbackground fluorescence).

Binder | fold improvement in binding over parent [1] [fold] | % inhibition of FRET signal [2] [%] | % inhibition of HTRF signal [2] [%]
B1 | ≥ 10 | ≥ 83 | 
B2 | ≥ 10 | ≥ 90 | 
B3 | ≥ 10 | ≥ 83 | 
B4 | ≥ 10 | ≥ 90 | 
B5 | ≥ 10 | ≥ 83 | 
B6 | ≥ 10 | ≥ 83 | 
B7 | ≥ 10 | ≥ 90 | 
B8 | ≥ 10 | ≥ 83 | 
B9 | ≥ 10 | ≥ 83 | 
B10 | ≥ 10 | ≥ 90 | 
B11 | ≥ 10 | ≥ 90 | 
B12 | ≥ 10 | ≥ 90 | 
B13 | ≥ 10 | ≥ 90 | 
B14 | ≥ 10 | ≥ 90 | 
B15 | ≥ 10 | ≥ 90 | 
B16 | ≥ 10 | ≥ 90 | 
B17 | ≥ 10 | ≥ 83 | 
B18 | ≥ 10 | ≥ 83 | 
B19 | ≥ 4 |  | ≥ 91
B20 | ≥ 4 |  | ≥ 91
B21 | ≥ 4 |  | ≥ 91
